Experiments:
[1] = target: Matrix-associated proTGFb1 (hLTBP1, hLTBP3); test: BLI (OCTET), average over matrix-associated complexes; assay type: binding, human; settings: average KD of (B) and (C), read-out: (D) ECM AVRG
Text: (§1) Column (A) of the table lists monoclonal antibodies with discrete amino acid sequences. […] Columns (B), (D), (E) and (F) provide affinities of each of the listed antibodies, measured in KD. […] Average KD values of (B) and (C) are shown in the corresponding column (D), which collectively represents affinities of the antibodies to ECM- or matrix-associated proTGFβ1 complexes. Similarly, Average KD values of (E) and (F) are shown in the corresponding column (G), which collectively represents affinities of the antibodies to cell-surface or cell-associated proTGFβ1 complexes. Finally, relative ratios between the average KD values from columns (D) and (G) are expressed as “fold bias” in column (H). Thus, the greater the number of column (H) is, the greater bias exists for the particular antibody, when comparing binding preferences of the antibody for matrix-associated complexes and cell-surface complexes. This is one way of quantitatively representing and comparing inherent bias of antibodies to their target complexes. Such analyses may be useful in guiding the selection process for a candidate antibody for particular therapeutic use.
(§2) The concept of “uniformity” or lack of bias is further illustrated in Table 8. Average KD values between the two matrix-associated and cell-associated complexes are calculated, respectively (see columns (D) and (G)). These average KD values can then be used to ask whether bias in binding activities exists between complexes associated with matrix vs. complexes associated with cell surface (e.g., immune cells). Bias may be expressed as “fold-difference”in the average KD values, as illustrated in Table 8.

[2] = test system: Cell-associated proTGFb1 (hGARP, hLRRC33); test: BLI (OCTET), average over cell-associated complexes; assay type: binding, human; settings: average KD of (E) and (F), read-out: (G) Cell AVRG
Text: as §1, §2

[3] = test system: LTBP1-proTGFβ1, LTBP3-proTGFβ1, GARP-proTGFβ1 and LRRC33-proTGFβ1 complexes; test: BLI (OCTET), binding profile and bias across the four complexes; set-up: species or system human; settings: ratio of average KD cell-associated / matrix-associated
Text: as §1, §2

[4] = test system: Cell-associated proTGFβ1 (hGARP, hLRRC33); test: MSD-SET, average over cell-associated complexes; assay type: binding, human; settings: average of (E) and (F), read-out: (G) Cell AVRG
Text: as §1
(§3) Solution equilibrium titration (“SET”) is an assay whereby binding between two molecules (such as an antigen and an antibody that binds the antigen) can be measured at equilibrium in a solution. For example, Meso-Scale Discovery (“MSD”)-based SET, or MSD-SET, is a useful mode of determining dissociation constants for particularly high-affinity protein-protein interactions at equilibrium (see, for example: Ducata et al. (2015) J Biomolecular Screening 20(10): 1256-1267). The SET-based assays are particularly useful for determining KD values of antibodies with sub-nanomolar (e.g., picomolar) affinities.

[5] = test system: hLTBP1-proTGFβ1, hLTBP3-proTGFβ1, hGARP-proTGFβ1 and hLRRC33-proTGFβ1; test: MSD-SET, binding profile and bias across the four human LLCs; settings: ratio of average KD cell-associated / matrix-associated
Text: Solution Equilibrium Titration (SET): The SET is an assay whereby binding between two molecules (such as an antigen and an antibody that binds the antigen) can be measured at equilibrium in a solution. For example, Meso-Scale Discovery (“MSD”)-based SET, or MSD-SET, is a useful mode of determining dissociation constants for particularly high-affinity protein-protein interactions at equilibrium, such as picomolar-affinity antibodies binding to their antigens (see, for example: Ducata et al. (2015) J Biomolecular Screening 20(10): 1256-1267). The SET-based assays are particularly useful for determining KD values of antibodies with sub-nanomolar (e.g., picomolar) affinities.
as §3
For solution equilibrium titration-based binding assays, protein complexes that comprise one of the presenting molecules such as those shown above may be employed as antigen (presenting molecule-TGFβ1 complex, or an LLC). Test antibodies are allowed to form antigen-antibody complex in solution. Antigen-antibody reaction mixtures are incubated to allow an equilibrium to be reached; the amount of the antigen-antibody complex present in the assay reactions can be measured by suitable means well known in the art. As compared to BLI-based assays, SET-based assays are less affected by on/off rates of the antigen-antibody complex, allowing sensitive detection of very high affinity interactions.

[6] = target: Matrix-associated proTGFβ1 (hLTBP1, hLTBP3); test: MSD-SET, average over matrix-associated complexes; assay type: binding, human; settings: average of (B) and (C), read-out: (D) ECM AVRG
Text: as §1, §3

Molecule	Kd [1] [nM]	Kd [2] [nM]	(H) G/D (fold bias) [3] [fold]	Kd [4] [nM]	(H) G/D (fold bias) [5] [fold]	Kd [6] [nM]
Ab21: proTGFβ1 antibody; VH SEQ ID NO: 129, VL SEQ ID NO: 15 (antibody, V domains shown) VH: EVQLVESGGGLVQPGGSLRLSCAASGFTFSSFSMDWVRQAPGKGLEWVSYISPDASTIYYADSVKGRFTISRDNAKNSLYLQMNSLRAEDTAVYYCARGVLDYGDMLDPWGQGTLVTVSS VL: DIQMTQSPSSLSASVGDRVTITCQASQDITNYLNWYQQKPGKAPKLLIYDASNLETGVPSRFSGSGSGTDFTFTISSLQPEDIATYYCQQADNHPPWTFGGGTKVEIK	0.246	0.644	2.613	–	–	–
Ab27: proTGFβ1 antibody; VH SEQ ID NO: 135, VL SEQ ID NO: 15 (antibody, V domains shown) VH: EVQLVESGGGLVQPGGSLRLSCAASGFTFSFYAMNWVRQAPGKGLEWVSYISPDASTIYYADSVKGRFTISRDNAKNSLYLQMNSLRAEDTAVYYCARGVLDYGDMLDPWGQGTLVTVSS VL: DIQMTQSPSSLSASVGDRVTITCQASQDITNYLNWYQQKPGKAPKLLIYDASNLETGVPSRFSGSGSGTDFTFTISSLQPEDIATYYCQQADNHPPWTFGGGTKVEIK	0.208	0.361	1.738	–	–	–
Ab28: proTGFβ1 antibody; VH SEQ ID NO: 136, VL SEQ ID NO: 15 (antibody, V domains shown) VH: EVQLVESGGGLVQPGGSLRLSCAASGFTFSSFSMDWVRQAPGKGLEWVSYISPDASTIYYADSVKGRFTISRDNAKNSLYLQMNSLRAEDTAVYYCVRGVLDYGDMLDPWGQGTLVTVSS VL: DIQMTQSPSSLSASVGDRVTITCQASQDITNYLNWYQQKPGKAPKLLIYDASNLETGVPSRFSGSGSGTDFTFTISSLQPEDIATYYCQQADNHPPWTFGGGTKVEIK	0.328	0.603	1.838	–	–	–
Ab23: proTGFβ1 antibody; VH SEQ ID NO: 131, VL SEQ ID NO: 15 (antibody, V domains shown) VH: EVQLVESGGGLVQPGGSLRLSCAASGFTFSSFSMNWVRQAPGKGLEWVSYISPSADTIYYADSVKGRFTISRDNAKNTLYLQMNSLRAEDTAVYYCARGVLDYGDMLDPWGQGTLVTVSS VL: DIQMTQSPSSLSASVGDRVTITCQASQDITNYLNWYQQKPGKAPKLLIYDASNLETGVPSRFSGSGSGTDFTFTISSLQPEDIATYYCQQADNHPPWTFGGGTKVEIK	0.443	0.897	2.028	–	–	–
Ab29: proTGFβ1 antibody; VH SEQ ID NO: 137, VL SEQ ID NO: 15 (antibody, V domains shown) VH: EVQLVESGGGLVQPGRSLRLSCAASGFTFSSFAMNWVRQAPGKGLEWVSYISPDASTIYYAGSVKGRFTISRDNAKNSLYLQMNSLRAEDTAVYYCVRAVLDYGDMLDPWGQGTLVTVSS VL: DIQMTQSPSSLSASVGDRVTITCQASQDITNYLNWYQQKPGKAPKLLIYDASNLETGVPSRFSGSGSGTDFTFTISSLQPEDIATYYCQQADNHPPWTFGGGTKVEIK	0.155	0.304	1.965	0.024	2.00	–
Ab25: proTGFβ1 antibody; VH SEQ ID NO: 133, VL SEQ ID NO: 15 (antibody, V domains shown) VH: EVQLVESGGGLVQPGGSLRLSCAASGFTFGSFSMDWVRQAPGKGLEWVSYISPDASTIYYADSVKGRFTISRDNAKNSLYLQMNSLRAEDTAVYYCARGVLDYGDMLDPWGQGTLVTVSS VL: DIQMTQSPSSLSASVGDRVTITCQASQDITNYLNWYQQKPGKAPKLLIYDASNLETGVPSRFSGSGSGTDFTFTISSLQPEDIATYYCQQADNHPPWTFGGGTKVEIK	0.184	0.449	2.431	–	–	–
Ab24: proTGFβ1 antibody; VH SEQ ID NO: 132, VL SEQ ID NO: 15 (antibody, V domains shown) VH: EVQLVESGGGLVQPGRSLRLSCAASGFTFSSFAMYWVRQAPGKGLEWVSYISPDASTIYYADSVKGRFTISRDNAKNSLYLQMNSLRAEDTAVYYCARGVLDYGDMLDPWGQGTLVTVSS VL: DIQMTQSPSSLSASVGDRVTITCQASQDITNYLNWYQQKPGKAPKLLIYDASNLETGVPSRFSGSGSGTDFTFTISSLQPEDIATYYCQQADNHPPWTFGGGTKVEIK	0.222	0.537	2.421	0.1	4.35	0.023
Ab30: proTGFβ1 antibody; VH SEQ ID NO: 138, VL SEQ ID NO: 15 (antibody, V domains shown) VH: EVQLVESGGGLVQPGGSLRLSCAASGFTFSSFSMDWVRQAPGKGLEWVSYISPDASTIYYADSVKGRFTISRDNAKNSLYLQMNSLRAEDTAVYYCARGTLDYGDMLDPWGQGTLVTVSS VL: DIQMTQSPSSLSASVGDRVTITCQASQDITNYLNWYQQKPGKAPKLLIYDASNLETGVPSRFSGSGSGTDFTFTISSLQPEDIATYYCQQADNHPPWTFGGGTKVEIK	0.296	0.684	2.307	0.081	2.80	0.029
Ab31: proTGFβ1 antibody; VH SEQ ID NO: 139, VL SEQ ID NO: 15 (antibody, V domains shown) VH: EVQLVESGGGLVQPGGSLRLSCAASGFTFSSFSMDWVRQAPGKGLEWVSYISPDASTIYYADSVKGRFTISRDNAKNTLYLQMNSLRAEDTAVYYCARAVLDYGDMLDPWGQGTLVTVSS VL: DIQMTQSPSSLSASVGDRVTITCQASQDITNYLNWYQQKPGKAPKLLIYDASNLETGVPSRFSGSGSGTDFTFTISSLQPEDIATYYCQQADNHPPWTFGGGTKVEIK	0.208	0.495	2.376	0.058	3.41	0.017
Ab22: proTGFβ1 antibody; VH SEQ ID NO: 130, VL SEQ ID NO: 15 (antibody, V domains shown) VH: EVQLVESGGGLVQPGGSLRLSCAASGFTFGSFSMNWVRQAPGKGLEWVSYIHSDASTIYYADSVKGRFTISRDNAKNSLYLQMNSLRAEDTAVYYCARGVLDYGDMLDPWGQGTLVTVSS VL: DIQMTQSPSSLSASVGDRVTITCQASQDITNYLNWYQQKPGKAPKLLIYDASNLETGVPSRFSGSGSGTDFTFTISSLQPEDIATYYCQQADNHPPWTFGGGTKVEIK	0.324	0.695	2.147	0.114	2.71	0.042
Ab26: proTGFβ1 antibody; VH SEQ ID NO: 134, VL SEQ ID NO: 15 (antibody, V domains shown) VH: EVQLVESGGGLVQPGGSLRLSCAASGFTFSSFSMDWVRQAPGKGLEWVSYISPDASTIYYADSVKGRFTISRDNAKNTLYLQMNSLRAEDTAVYYCARGVLDYGDMLDPWGQGTLVTVSS VL: DIQMTQSPSSLSASVGDRVTITCQASQDITNYLNWYQQKPGKAPKLLIYDASNLETGVPSRFSGSGSGTDFTFTISSLQPEDIATYYCQQADNHPPWTFGGGTKVEIK	0.197	0.492	2.500	0.072	2.77	0.026
